Laboratory results reported in patent US20140349405, “RNA-DIRECTED DNA CLEAVAGE AND GENE EDITING BY CAS9 ENZYME FROM NEISSERIA MENINGITIDIS” (WISCONSIN ALUMNI RESEARCH FOUNDATION, published 2014).
Positions count from the first letter of the chain named.

Columns and labels:
[1] = target: T1, RNA polymerase sigma70 holoenzyme (Escherichia coli, UniProt P0A7Z4;P0A8V2;P0A8T7;P0A800;P00579 …); assay: in vitro transcription, 168 nt product; 10 mM Mg, 100 mM KCl, 37 C; settings: tags: Epicentre, sigma-saturated; chain copies: 2,1,1,1,1
T1 sequence (P0A7Z4 whole entry, chain 1 of 4): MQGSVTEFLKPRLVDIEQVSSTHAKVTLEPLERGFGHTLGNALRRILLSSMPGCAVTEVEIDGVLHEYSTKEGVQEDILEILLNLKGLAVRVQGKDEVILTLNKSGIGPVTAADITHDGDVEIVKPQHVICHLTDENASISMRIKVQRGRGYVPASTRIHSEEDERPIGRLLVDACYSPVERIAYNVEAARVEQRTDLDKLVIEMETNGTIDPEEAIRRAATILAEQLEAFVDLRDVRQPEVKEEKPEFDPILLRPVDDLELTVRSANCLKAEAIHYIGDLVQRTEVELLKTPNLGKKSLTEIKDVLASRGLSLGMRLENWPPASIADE
T1 sequence (P0A8V2 whole entry, chain 2 of 4): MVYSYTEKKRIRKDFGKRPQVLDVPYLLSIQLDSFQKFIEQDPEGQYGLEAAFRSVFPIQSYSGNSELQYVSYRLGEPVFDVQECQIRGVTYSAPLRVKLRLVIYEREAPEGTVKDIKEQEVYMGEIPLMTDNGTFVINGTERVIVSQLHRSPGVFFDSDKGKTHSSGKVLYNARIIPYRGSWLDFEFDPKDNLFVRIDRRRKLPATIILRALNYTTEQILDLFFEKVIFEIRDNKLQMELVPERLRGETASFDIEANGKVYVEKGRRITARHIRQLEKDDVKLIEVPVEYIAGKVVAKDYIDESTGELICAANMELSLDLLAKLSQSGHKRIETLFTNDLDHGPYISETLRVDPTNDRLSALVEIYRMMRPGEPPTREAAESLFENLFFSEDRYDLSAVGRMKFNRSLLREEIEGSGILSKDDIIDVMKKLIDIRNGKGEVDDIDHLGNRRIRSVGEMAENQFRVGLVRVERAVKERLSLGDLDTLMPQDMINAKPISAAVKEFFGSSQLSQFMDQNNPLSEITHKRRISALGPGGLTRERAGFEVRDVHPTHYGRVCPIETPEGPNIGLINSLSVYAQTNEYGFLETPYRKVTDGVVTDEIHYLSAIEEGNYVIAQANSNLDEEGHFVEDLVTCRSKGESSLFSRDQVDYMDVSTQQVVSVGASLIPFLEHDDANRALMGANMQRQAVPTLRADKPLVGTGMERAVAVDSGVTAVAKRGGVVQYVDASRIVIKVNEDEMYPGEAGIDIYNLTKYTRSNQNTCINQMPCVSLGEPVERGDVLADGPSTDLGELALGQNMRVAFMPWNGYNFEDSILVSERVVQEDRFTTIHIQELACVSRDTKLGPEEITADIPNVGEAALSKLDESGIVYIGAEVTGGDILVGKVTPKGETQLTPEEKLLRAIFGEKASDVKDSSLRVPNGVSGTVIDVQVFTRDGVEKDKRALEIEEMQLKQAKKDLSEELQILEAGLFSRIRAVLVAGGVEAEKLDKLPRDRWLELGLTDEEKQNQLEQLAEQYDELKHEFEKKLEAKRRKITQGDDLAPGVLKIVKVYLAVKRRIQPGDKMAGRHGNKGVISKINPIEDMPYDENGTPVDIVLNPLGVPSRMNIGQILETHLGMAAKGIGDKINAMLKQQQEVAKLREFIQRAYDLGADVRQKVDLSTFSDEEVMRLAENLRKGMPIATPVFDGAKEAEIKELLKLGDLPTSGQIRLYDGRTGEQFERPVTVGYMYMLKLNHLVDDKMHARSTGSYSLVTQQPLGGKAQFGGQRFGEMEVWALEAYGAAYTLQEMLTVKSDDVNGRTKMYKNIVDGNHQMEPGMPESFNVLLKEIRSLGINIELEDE
T1 sequence (P0A800 2-91, chain 4 of 4): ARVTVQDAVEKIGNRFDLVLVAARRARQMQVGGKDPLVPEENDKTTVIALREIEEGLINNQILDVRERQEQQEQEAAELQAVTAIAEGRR
T1 sequence (P00579 whole entry, chain 5 of 4): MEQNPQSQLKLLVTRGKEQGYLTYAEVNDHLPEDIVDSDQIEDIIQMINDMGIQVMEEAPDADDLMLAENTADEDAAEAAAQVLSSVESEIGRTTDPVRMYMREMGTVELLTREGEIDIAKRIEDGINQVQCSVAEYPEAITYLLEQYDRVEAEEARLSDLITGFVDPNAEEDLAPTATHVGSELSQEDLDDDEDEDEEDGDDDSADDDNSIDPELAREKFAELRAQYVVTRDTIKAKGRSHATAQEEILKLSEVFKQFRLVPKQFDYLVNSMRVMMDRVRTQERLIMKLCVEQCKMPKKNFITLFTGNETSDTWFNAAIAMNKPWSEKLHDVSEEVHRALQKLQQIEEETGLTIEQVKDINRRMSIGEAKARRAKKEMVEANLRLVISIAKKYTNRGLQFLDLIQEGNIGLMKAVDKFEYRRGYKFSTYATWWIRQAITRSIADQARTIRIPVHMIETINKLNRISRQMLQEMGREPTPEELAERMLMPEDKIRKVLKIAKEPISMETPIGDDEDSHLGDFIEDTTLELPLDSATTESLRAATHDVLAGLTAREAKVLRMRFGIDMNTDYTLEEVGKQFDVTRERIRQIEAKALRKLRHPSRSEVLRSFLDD

[2] = target: T1, RNA polymerase sigma70 holoenzyme; assay: in vitro transcription, no transcript; settings: tags: Epicentre, sigma-saturated; chain copies: 2,1,1,1,1

B1: Neisseria CRISPR repeat promoter wt (dsDNA)
DNA 1: GTTGTAGCTCCCTTTCTCATTTCGCAGTGCTACAAT
DNA 2: ATTGTAGCACTGCGAAATGAGAAAGGGAGCTACAAC
B1: binds [1].

B2: Neisseria CRISPR repeat promoter mut (dsDNA)
DNA 1: B1 DNA 1 with T31C, A32C
DNA 2: B1 DNA 2 with T5G, A6G
modifications: [31-32]
B2: no binding [2].
